Laboratory results published in US20180196057A1 (VENTANA MEDICAL SYSTEMS, published 2018).
Where a chain is given by its changes, count along the chain named. Values belong to the binder of their own block, whether it stands above or below them.

How the values were obtained:
human pro-epiregulin [1] = target: T1, human pro-epiregulin (human, UniProt O14944 30-169); assay: IHC on FFPE carcinoma cell lines and colorectal cancer cases (OptiView DAB)
T1 construct: Endogenous protein in FFPE tissue sections, xenografts and cell lysates (IHC, Western blot); also called EREG; pro-EREG
T1 sequence: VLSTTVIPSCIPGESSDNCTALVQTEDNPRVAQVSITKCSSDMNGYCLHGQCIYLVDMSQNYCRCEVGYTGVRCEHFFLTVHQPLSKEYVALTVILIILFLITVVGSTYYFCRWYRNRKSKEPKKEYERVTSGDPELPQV
Procedure: (§1) All assay optimization were performed on human non-small cell lung carcinoma (NSCLC) (NCI-H1975; NCI-H1650; H460; NCI-HCC827; H2228; Calu-3; H820), breast (MCF7; A431) carcinoma cell lines and colorectal cancer tissues. Stained slides for the tested conditions were evaluated by a trained pathologist and the optimal staining conditions were determined based on the staining intensity, percentage of positive cells and the level of non-specific (background) staining.
(§2) The assay performance of EREG/AREG IHC assays were evaluated on 8 colorectal cancer cases kindly provided by Dr. Paul Waring. Specimens were immunohistochemically stained for EREG expression with clone J5H1L1 and for AREG expression with J111H1L10 on a VENTANA BenchMark XT IHC/ISH instrument.

human amphiregulin = target: T2, human amphiregulin (human, UniProt P15514 20-252); assay: as above
T2 construct: Endogenous protein in FFPE tissue sections and cell lysates (IHC, Western blot); also called AREG; pro-AREG
T2 sequence: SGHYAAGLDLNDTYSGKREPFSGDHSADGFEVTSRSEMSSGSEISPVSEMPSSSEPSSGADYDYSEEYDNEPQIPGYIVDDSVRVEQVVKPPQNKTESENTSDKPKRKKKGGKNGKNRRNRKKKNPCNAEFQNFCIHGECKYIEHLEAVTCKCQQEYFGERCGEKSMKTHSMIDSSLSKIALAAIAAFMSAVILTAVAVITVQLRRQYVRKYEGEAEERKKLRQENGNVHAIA
Procedure: as §1, §2

human pro-epiregulin [2] = target: T1, human pro-epiregulin; assay: recombinant antibodies screened for binding to human pro-epiregulin by IHC

B1: anti-human pro-epiregulin monoclonal antibody J5H1L1 (antibody, V domains shown)
VH: QSVEESGGRLVTPGTPLTLTCTVSGFSLSRYGMSWVRQAPGKGLEYIGSINRTAYTYYATWAKGRFTISRTSTTVDLRMTSLTTEDTATYFCARGLTYGGSDYDYDDALWGPGTLVTVSS
VL: QVLTQTPSSVSAAVGGTVTINCQASQSVYKNKNLAWYQQKPGQPPKLLIYRASTLASGVSSRFKGSGSGTQFTLTISGVQCADAATYYCQGEFSCSTFDCILFGGGTEMVVK
notes: also called clone J5H1L1; EREG J5H1L1
- binding result (human pro-epiregulin [1]): binds

B3: anti-human pro-epiregulin monoclonal antibody J89H12L3 (antibody, V domains shown)
VH: KSVEESGGRLVTPGTPLTLTCTVSGIDLSTFAMAWVRQAPGKGLEYIGFISLSDATYYATWAKGRFTISKSSSTTVDLKIITPTAEDTATYFCARVVGDSSGYPNTFHPWGPGTLVTVSS
VL: QVLTQTPSPVSAAVGGTVTINCQASQSIHNSDFLAWYQQKPGQPPKLLIYRASKLPSGVPSRFKGSGSGTQFTLTISDLECDDAATYYCQGTYYSGGWYFTFGGGTEVVVK
notes: also called clone J89H12L3
- binding result (human pro-epiregulin [2]): binds

Further lines, results first:

- binding result (human amphiregulin): binds
B2: anti-human amphiregulin monoclonal antibody J111H1L10 (antibody, V domains shown)
VH: QSLEESRGGLIKPGGTLTLTCTVSGFSLSSYAISWVRQAPGNGLEWIGFIVGSSGSAYYASWAKSRSTITRDTNLNTVTLKMTSLTAADTATYFCAKGLYSGGNYWGPGTLVTVSS
VL: AVLTQTPSPVSAAVGGTVSISCQSSQSVDENNYLSWFQQKPGQPPKLLIYRASTLESGVPSRFSGSGSGTQFTLTVSGVQCDDAATYYCLGGYSGYSDDGFGGGTEVVVK
notes: also called clone J111H1L10; AREG J111H1L10

- binding result (human pro-epiregulin [2]): binds
B4: anti-human pro-epiregulin monoclonal antibody J89H12L8 (antibody, V domains shown)
VH: B3 VH
VL: B3 VL with S27N
notes: also called clone J89H12L8
